Key:
[1] = system: T1, VEGF-121 (Homo sapiens), P15692-9; assay: filter; settings: Nap-dU at all P positions; 2'-OMe at C6,G9,C12,G15,A17,G18,Nap22,G28,G29; 0.035 nM in Table 14
T1 sequence: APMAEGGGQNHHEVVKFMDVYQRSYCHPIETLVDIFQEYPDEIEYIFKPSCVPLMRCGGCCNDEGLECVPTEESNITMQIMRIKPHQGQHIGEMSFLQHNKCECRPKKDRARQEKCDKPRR

PDGF-BB (Homo sapiens) = PDGF-BB (Homo sapiens) (UniProt P01127); assay: filter; settings: Bn-dU
UniProt P01127, sequence (P01127 82-190): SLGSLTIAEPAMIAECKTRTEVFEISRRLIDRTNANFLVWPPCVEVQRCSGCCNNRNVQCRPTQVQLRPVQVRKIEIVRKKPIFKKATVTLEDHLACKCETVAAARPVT

CCGTTCAAGTGCTTGTAGGATTTAAATGG [4867-31_192]
Kd [1]: 0.023 nM

TACGACTACGTTACACGCGTTTATAGCG [4149-8_64]
Kd (PDGF-BB (Homo sapiens); C3 at position 1): < 10 nM

TTACACTACGTTACACGCGTTTATAGCG [4149-8_68]
Kd (PDGF-BB (Homo sapiens); C3 at position 5): < 10 nM

TTACGACACGTTACACGCGTTTATAGCG [4149-8_71]
Kd (PDGF-BB (Homo sapiens); C3 at position 8): < 10 nM

TTACGACTACGTTAACGCGTTTATAGCG [4149-8_78]
Kd (PDGF-BB (Homo sapiens); C3 at position 15): < 10 nM

TTACGACTACGTTACACGCGTTTATAGC [4149-8_92]
Kd (PDGF-BB (Homo sapiens); C3 at position 29): < 10 nM

TTACGACTACGTTACACGCGTTTATAGCG [4149-8_44]
Kd (PDGF-BB (Homo sapiens); 2'-OMe at position 3): < 10 nM

TTACGACTACGTTACACGCGTTTATAGCG [4149-8_45]
Kd (PDGF-BB (Homo sapiens); 2'-OMe at position 4): < 10 nM

TTACGACTACGTTACACGCGTTTATAGCG [4149-8_46]
Kd (PDGF-BB (Homo sapiens); 2'-OMe at position 5): < 10 nM

TTACGACTACGTTACACGCGTTTATAGCG [4149-8_47]
Kd (PDGF-BB (Homo sapiens); 2'-OMe at position 6): < 10 nM

TTACGACTACGTTACACGCGTTTATAGCG [4149-8_48]
Kd (PDGF-BB (Homo sapiens); 2'-OMe at position 7): < 10 nM

TTACGACTACGTTACACGCGTTTATAGCG [4149-8_49]
Kd (PDGF-BB (Homo sapiens); 2'-OMe at position 9): < 10 nM

TTACGACTACGTTACACGCGTTTATAGCG [4149-8_50]
Kd (PDGF-BB (Homo sapiens); 2'-OMe at position 10): < 10 nM

TTACGACTACGTTACACGCGTTTATAGCG [4149-8_51]
Kd (PDGF-BB (Homo sapiens); 2'-OMe at position 11): < 10 nM

TTACGACTACGTTACACGCGTTTATAGCG [4149-8_52]
Kd (PDGF-BB (Homo sapiens); 2'-OMe at position 14): < 10 nM

TTACGACTACGTTACACGCGTTTATAGCG [4149-8_53]
Kd (PDGF-BB (Homo sapiens); 2'-OMe at position 15): < 10 nM

TTACGACTACGTTACACGCGTTTATAGCG [4149-8_54]
Kd (PDGF-BB (Homo sapiens); 2'-OMe at position 16): < 10 nM

TTACGACTACGTTACACGCGTTTATAGCG [4149-8_55]
Kd (PDGF-BB (Homo sapiens); 2'-OMe at position 17): < 10 nM

TTACGACTACGTTACACGCGTTTATAGCG [4149-8_56]
Kd (PDGF-BB (Homo sapiens); 2'-OMe at position 18): < 10 nM

TTACGACTACGTTACACGCGTTTATAGCG [4149-8_57]
Kd (PDGF-BB (Homo sapiens); 2'-OMe at position 19): < 10 nM

TTACGACTACGTTACACGCGTTTATAGCG [4149-8_58]
Kd (PDGF-BB (Homo sapiens); 2'-OMe at position 20): < 10 nM

TTACGACTACGTTACACGCGTTTATAGCG [4149-8_59]
Kd (PDGF-BB (Homo sapiens); 2'-OMe at position 24): < 10 nM

TTACGACTACGTTACACGCGTTTATAGCG [4149-8_60]
Kd (PDGF-BB (Homo sapiens); 2'-OMe at position 26): < 10 nM

TTACGACTACGTTACACGCGTTTATAGCG [4149-8_61]
Kd (PDGF-BB (Homo sapiens); 2'-OMe at position 27): < 10 nM

TTACGACTACGTTACACGCGTTTATAGCG [4149-8_62]
Kd (PDGF-BB (Homo sapiens); 2'-OMe at position 28): < 10 nM

TTACGACTACGTTACACGCGTTTATAGCG [4149-8_63]
Kd (PDGF-BB (Homo sapiens); 2'-OMe at position 29): < 10 nM

TTACGACTACGTTACACGCGTTTATAGG [4149-8_91]
Kd (PDGF-BB (Homo sapiens); C3 at position 28): < 10 nM

TTACGACTACGTTACACGCGTTTTAGCG [4149-8_87]
Kd (PDGF-BB (Homo sapiens); C3 at position 24): < 10 nM

TTACGACTACGTTACAGCGTTTATAGCG [4149-8_80]
Kd (PDGF-BB (Homo sapiens); C3 at position 17): < 10 nM

TTACGACTACGTTACCGCGTTTATAGCG [4149-8_79]
Kd (PDGF-BB (Homo sapiens); C3 at position 16): < 10 nM

TTACGACTAGTTACACGCGTTTATAGCG [4149-8_73]
Kd (PDGF-BB (Homo sapiens); C3 at position 10): < 10 nM

TTACGACTCGTTACACGCGTTTATAGCG [4149-8_72]
Kd (PDGF-BB (Homo sapiens); C3 at position 9): < 10 nM

TTACGATACGTTACACGCGTTTATAGCG [4149-8_70]
Kd (PDGF-BB (Homo sapiens); C3 at position 7): < 10 nM

TTACGCTACGTTACACGCGTTTATAGCG [4149-8_69]
Kd (PDGF-BB (Homo sapiens); C3 at position 6): < 10 nM

TTACGTTACCGCGTTTATAGCG [4149-8_426]
Kd (PDGF-BB (Homo sapiens); MBn-dU, Heg, C3, 2'-OMe): > 10 nM

TTACGTTACCGTTTATAG [4149-8_405]
Kd (PDGF-BB (Homo sapiens); Heg, C3): > 10 nM

TTAGACTACGTTACACGCGTTTATAGCG [4149-8_67]
Kd (PDGF-BB (Homo sapiens); C3 at position 4): < 10 nM

Reference: patent publication US20170260531
